# Reference: patent US20220112288A1 (published 2022)
# Changes are numbered by the printed parent chain.
# B1: CD8B251 (antibody, human IgG1, kappa, V domains shown)
# VH: QVQLKGSGPGLVQPSQSLSITCTVSGFSLTTYAVHWVRQSPGKGLEWLGVIWSGGSTDYNAAFISRLSISKDNSKSQVFFKMNSLQADDTAIYYCARHSYYHYNAMDNWGQGTSVTVSS
# VL: DIKMTQSQKFMSTTVGDRVSITCKASQNVGTAVAWYQQKPGQSPKLLIYSASNRYTGVPDRFTGSGSGTDFTLTISNMQSEDLADYFCQQYSSYPFTFGSGTKLEIKR
# notes: Full-length human IgG1, kappa; V regions recovered from mouse hybridoma
# B2: CD8B347 (antibody, human IgG1, kappa)
# heavy: not shown
# light: DIQMTQSPASLSASVGETVTITCRASGNIHNYLAWYQQKQGKSPQLLVFNAETLADGVPSRFSGSGSGTQFSLKINSLQPEDFGTYYCQHFWNNPLTLGAGTKLELKRTVAAPSVFIFPPSDEQLKSGTASVVCLLNNFYPREAKVQWKVDNALQSGNSQESVTEQDSKDSTYSLSSTLTLSKADYEKHKVYACEVTHQGLSSPVTKSFNRGEC
# notes: as for B1
# B3: CD8B350 (antibody, human IgG1, kappa, V domains shown)
# VH: EVQLQQSGAELAKPGTSVKMSCKASGYTFAAYWINWLKQRPGQGLEWIGSINPSNGYTEYSQKFKDKAILTADKSSSTAYMQLSSLTSEDSAVYYCSRSGLYYTNHLAWCPYWGQGTTVTVSS
# VL: DIVMTQSPASLSASVGETVTITCRASGNIHNYLAWYQQKQGKSPQVLVYNAETLADSVPSRFSGSGSGTQFSLKINSLQPEDFGNYYCQHFWNSPLTFGGGTKLEIKR
# notes: as for B1
# B4: CD8B310 (antibody, human IgG1, kappa, V domains shown)
# VH: QVQLKESGPGLVAPSQSLSITCTVSGFSLTNYAVHWVRQSPGKGLEWLGVIWTDGSTDYNAGFISRLSISKDNSKSQVFFKMNSLQADDTAIYYCARNNGYFPAFFAYWGQGTTVTVSS
# VL: DVLMTQTPLSLPVSLGDQASISCRSSQTIVHSNGNTYLEWYLQKPGQSPKLLMYKVSNRFSGVPDRFGGSGSGTDFTLKISRVEAEDLGVYYCFQGSHAPFTFGSGTKLEIKR
# notes: as for B1
# B5: CD8B182 (antibody, human IgG1, kappa, V domains shown)
# VH: EVQLQQSGAALAKPGTSVKMSCKASGYTFTSYWMNWVRQRPGQGLEWIGAVNPTNYYTEYIQKFKDKAILTADKSSSTAYMHLSGLTSEDSAVYYCARSGLYNTNHLAWFAYWGQGTTVTVSS
# VL: DIKMTQSPASLSASVGETVTITCRASENIHNYLAWYQQIQGKSPQLLVYNAKTLANGVPSRFSGSASGTQFSLTINSLQPEDFGSYYCQHFWTTPLTFGAGTKLELKR
# notes: as for B1
# B6: CD8B356 (antibody, human IgG1, kappa, V domains shown)
# VH: DVQLQESGPGLVKPSQSLSLTCSVTGYSITSGYYWNWIRQFPGNKLEWMGYISYDGSNNYNPSLKNRISITRDTSKNQFFLKLNSVTTEDTATYYCVRNHGDAMDYWGQGTSVTVSS
# VL: DIVLTQSQKFMSTTVGDRVSITCKASQNVGTAVAWYQQKPGQSPKLLIYSASYRYTGVPDRFTGSGSGTHFTLTISNMQSEDLADYFCQQYSSYLTFGSGTKLEIKR
# notes: as for B1
# B7: CD8B269 (antibody, human IgG1, kappa, V domains shown)
# VH: B6 VH with Y106H, S112T, V113L
# VL: DIVMTQSQKFMSTSVGDRVRVTCKASQNVGTDVAWYQQKPGQSPKALIYSASYRYSGVPDRFTGSGSGTDFTLTISDVQSEDLAEYFCQQYKSYPLTFGAGTKLELKR
# notes: as for B1
# B8: CD8B319 (antibody, human IgG1, kappa, V domains shown)
# VH: QVQLKESGPELKKPGETVKISCKASGYSFTAYYMHWVKQSPEKSLEWIGEINPSAGGTTYNQKFKAKATLTVDKSSSTAFIQLKSLTSEDSAVYYCARWTNPFDYWGQGTTLTVSS
# VL: B6 VL with L4M, M78I, S92N, S93N
# notes: as for B1
# Biological target: T1, human CD8 on human pan T cells (CD4-negative population) (human, UniProt P01732 22-235; P10966 22-210)
# T1 construct: whole, on cells; Endogenous CD8 on primary human pan T cells, read in the CD4-negative gate; also called CD8α/β
# T1 sequence (P01732 22-235, chain 1 of 2): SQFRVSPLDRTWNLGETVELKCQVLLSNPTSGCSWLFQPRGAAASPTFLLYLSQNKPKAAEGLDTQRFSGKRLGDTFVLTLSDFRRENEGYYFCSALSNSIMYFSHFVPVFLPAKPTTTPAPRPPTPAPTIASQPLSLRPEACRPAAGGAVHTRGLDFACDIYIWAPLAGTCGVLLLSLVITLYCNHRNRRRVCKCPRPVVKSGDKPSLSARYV
# T1 sequence (P10966 22-210, chain 2 of 2): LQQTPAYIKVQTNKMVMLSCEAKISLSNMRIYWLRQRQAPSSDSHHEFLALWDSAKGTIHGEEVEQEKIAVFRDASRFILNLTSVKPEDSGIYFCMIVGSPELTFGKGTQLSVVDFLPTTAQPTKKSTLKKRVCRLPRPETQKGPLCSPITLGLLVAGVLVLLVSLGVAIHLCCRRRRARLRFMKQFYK
# Experiment: flow cytometry, 20 nM antibody on human pan T cells, A647 anti-human IgG Fc; geomean ratio in CD4-negative population
# Description: Cell binding. […] Percent CD8 positive population was calculated by percentage of CD8-positive cell count/live cell count.
row,Binder,Cell Binding to Human PanT Signal/Background (of CD4 negative population)
1,B1,37
2,B2,1200
3,B3,537
4,B4,29
5,B5,1490
6,B6,777
7,B7,26
8,B8,16
